Data set [1] addresses T1, mature evolved transglutaminase (SEQ ID NO: 5) (Streptomyces mobaraensis, UniProt P81453, G359A/K167H/K227R/K228R/N358M/Q126S/Q150A/Q200L).
T1 construct: hexa-His tag with two amino acid linker (C); made in house; host or cells: E. coli BL21 (DE3)
Kind of data set: transglutaminase thermostability: activity after being held at 37-50 °C. Details: key: The symbol, —, represents not determined, neutral, or reduced performance. The conditions noted are these: relative to wild-type pro-peptide; held at 37° C.-50° C. for 30 minutes, diluted 10-fold to 100-fold. It counts as biochemical. As to the method:
The terms “stability” and “thermostability” are used interchangeably to refer to increased residual activity of mature transglutaminase after incubation at elevated temperatures. In some embodiments, a pro-peptide variant increases the stability of a mature transglutaminase compared to the wild type pro-peptide. Measurement of stability is depicted in Example 4.
It is believed that these pro-peptide variants confer thermal stability to mature transglutaminase.

Data set [2] addresses T1, mature evolved transglutaminase (SEQ ID NO: 5). Kind of data set: casein assay, inhibition by pro-peptide variants (Method B, activated zymogen). Details: key: The symbol, —, represents not determined, neutral, or reduced performance. It counts as biochemical. The note with it: relative to wild-type pro-peptide, diluted approximately 20-fold into casein assay solution. An excerpt: Method B. The gene coding for a Pro-transglutaminase (i.e., zymogen form of transglutaminase) variant with the wild-type pro-domain (SEQ ID NO: 2) and an evolved mature domain including a C-terminal His tag (SEQ ID NO: 5), and was cloned into a pET vector operatively linked to the T7 promoter. The expression vector also contains the pMB1 origin of replication and a kanamycin resistance gene. The resulting plasmid was transformed first into E. coli DH-10B, using standard methods known in the art. […]
(§1) A secondary screen was performed to determine initial rate of transglutaminase in the presence of the pro-peptide variants using transglutaminase-catalyzed labeling of casein with dansylcadaverine (e.g., a commercially available kit such as the Transglutaminase Fluorogenic Activity Assay Kit, T036, Zedira, Germany). Transglutaminase activity was monitored by measuring the fluorescence (excitation wavelength 332 nm; emission wavelength 500 nm) using a BioTek Synergy H1 microplate reader. Transglutaminase-catalyzed covalent coupling (crosslinking) of monodansylcadaverine with N,N-dimethylcasein produces a product that causes a shift in intensity and wavelength of fluorescence of the dansyl group now linked to the casein. The relative transglutaminase activity is shown by increase of fluorescence intensity over time. […]

The target in data set [3] is evolved variant of mature Streptomyces mobaraensis transglutaminase, including a two amino acid linker and hexa-his tag (Streptomyces mobaraensis) (UniProt P81453). Kind of data set: cell-based or functional assay.
The target in data set [4] is T2, thermostable mature transglutaminase variant (SEQ ID NO: 3) (Streptomyces mobaraensis, UniProt P81453).
T2 construct: made in house; host or cells: E. coli (lysate)
Type of data set: biochemical. The note with it: casein assay; Method A.
Text: (§2) Method A. A bicistronic expression vector encoding the wild-type pro-domain of transglutaminase (SEQ ID NO: 2) and a thermostable mature transglutaminase variant (SEQ ID NO: 3) as separate polypeptides was cloned as described in PCT/US20/49226 (WO2021/178001 A1). The vector was used as a template for synthesis of a random mutagenesis library targeting the pro-domain coding sequence to create pro-domain peptide variants.
Method A. Plasmid libraries containing mature transglutaminase and variant pro-domain peptides were plated on Luria-Bertani (LB) agar plates containing 50 μg/mL of kanamycin. After incubation for at least 16 hours at 37° C., colonies were picked and inoculated into 1 mL of LB broth with 50 μg/mL kanamycin in one well of a 96 deep well culture plate. The plate was covered with a breathable seal and incubated overnight at 37° C. with 400 rpm of shaking. 10 μL of the seed culture was used to inoculate 1 mL of media in a 96 deep well culture plate for expression. The expression plate was allowed to grow for 6-8 hours at 30° C. Expression was then induced by adding isopropyl beta-D-1-thiogalactopyranoside (IPTG) to a final concentration of 1 mM and the temperature was reduced to 20° C. while growth continued for an additional 15 hours. Cells were harvested by centrifugation at 4000 rcf for 30 minutes and pellets were frozen at −80° C.
as §1, with “time. The data were normalized for transglutaminase expression levels in E. coli lysate as described above. Pro-domain variants were identified based on their ability to alter the activity of the mature transglutaminase enzyme.” for “time.”
It is believed that these pro-peptide variants have reduced binding affinity with mature mTgase.

The target of data set [5] is T2, thermostable mature transglutaminase variant (SEQ ID NO: 3). Kind of data set: pH-responsiveness screen: casein/dansylcadaverine assay at pH 6.0 and pH 8.0 in the presence of pro-peptide variants (Method A). Type of data set: biochemical. The note with it: casein assay.
Text: as §2
Method A. Plasmid libraries containing mature transglutaminase and variant pro-domain peptides were plated on Luria-Bertani (LB) agar plates containing 50 μg/mL of kanamycin. […]
as §1, with “casein.” for “casein. The relative transglutaminase activity is shown by increase of fluorescence intensity over time.”

The test system of data set [6] is E. coli ATCC 8739. Kind of data set: MIC determination of bacterial cultures (OD600). Type of data set: cell-based. The conditions noted are these: E. coli ATCC 8739, Mueller Hinton broth. On the procedure:
E. coli ATCC 8739 and C. albicans ATCC 10231 were acquired from the American Type Culture Collection (ATCC) (Manassas, VA) and maintained as −80° C. frozen glycerol stocks.
For Minimum Inhibitor Concentration (MIC) determination of bacterial cultures, E. coli ATCC 8739 was grown overnight (16-18 hours) in Mueller Hinton broth at 37° C. The following day, the cell density of the saturated cultures was calculated using OD600 and cultures were diluted to 10^4 to 10^6 CFU/mL in sterile Mueller Hinton broth to generate the inoculum, and 100 μL of the inoculum was combined with 100 μL of serially diluted transglutaminase variant at a range of 0.0001-0.05 weight percent. Growth curves were measured by OD600 on a BioTek® Synergy Plate Reader. All test conditions were performed in triplicate. MIC was determined to be 50 ppm (0.005% w/v) against E. coli for the enzyme described in SEQ ID NO: 5 using OD600.

The source of these data is patent publication US20250304927A1, “PRO-PEPTIDE VARIANTS FOR MODULATING ACTIVITY OF TRANSGLUTAMINASES” (CURIE CO. INC., priority 2022, published 2025).

T1 sequence (P81453 other isoform, or with tags, fused parts or gaps Q126S/Q150A/K167H/Q200L/K227R/K228R/N358M/G359A): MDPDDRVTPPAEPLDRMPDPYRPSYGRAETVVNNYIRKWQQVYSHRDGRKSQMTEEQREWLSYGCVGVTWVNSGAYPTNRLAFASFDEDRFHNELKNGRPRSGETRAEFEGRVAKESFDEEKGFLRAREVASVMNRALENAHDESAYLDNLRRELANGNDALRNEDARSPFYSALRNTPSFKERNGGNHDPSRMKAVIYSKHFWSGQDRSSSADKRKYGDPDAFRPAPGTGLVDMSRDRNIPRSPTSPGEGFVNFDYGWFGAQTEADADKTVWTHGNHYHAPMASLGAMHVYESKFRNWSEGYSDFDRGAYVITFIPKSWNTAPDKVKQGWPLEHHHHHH

As to “D2I, E2S, D21T: combination variant of pro-peptide SEQ ID NO: 2, Method B; E2S probably E7S (MINGAGSETKSYAETYRLTATDVANINALNESAPAASSAGPSFRAP)”, the Thermostability entry in data set [1] is “—”. Moreover, the Inhibition in data set [2] is on record as >2 fold.
Turning to “pro-peptide variant D2I, E2S, D21T (Method B)”, the Inhibition in data set [3] was > 2 fold.
Regarding “D2I, E7S, L18V, D21R: combination variant of pro-peptide SEQ ID NO: 2, Method B (MINGAGSETKSYAETYRVTARDVANINALNESAPAASSAGPSFRAP)”, the Thermostability result in data set [1] is given as “—”.
On the same count and under the same terms, for “D2S, D22Q: combination variant of pro-peptide SEQ ID NO: 2, Method B (MSNGAGEETKSYAETYRLTADQVANINALNESAPAASSAGPSFRAP)” the value was “—”; for “D2F: substitution variant of pro-peptide SEQ ID NO: 2 (MFNGAGEETKSYAETYRLTADDVANINALNESAPAASSAGPSFRAP) [Variant D2F]”, “—”.
For the molecule “D21T: substitution variant of pro-peptide SEQ ID NO: 2 (MDNGAGEETKSYAETYRLTATDVANINALNESAPAASSAGPSFRAP) [Variant D21T]”, in data set [2], the Inhibition entry was “—”.
As for “D2I, D22Q: combination variant of pro-peptide SEQ ID NO: 2, Method B (MINGAGEETKSYAETYRLTADQVANINALNESAPAASSAGPSFRAP)”, the Thermostability entry in data set [1] was “—”.
For “D2S, E7S: combination variant of pro-peptide SEQ ID NO: 2, Method B (MSNGAGSETKSYAETYRLTADDVANINALNESAPAASSAGPSFRAP)”, the Thermostability entry in data set [1] was “—”.
In the case of “D2S, E7S, D21T, D22Q: combination variant of pro-peptide SEQ ID NO: 2, Method B (MSNGAGSETKSYAETYRLTATQVANINALNESAPAASSAGPSFRAP)”, the Thermostability entry in data set [1] was “—”.

B1: SEQ ID NO: 4 (protein)
chain: MDNGAGEETKSYAETYRLTADDVLNINAETYRLTADDVRNINALNESAPAASSAGPSFRAP
As for B1, the “transglutaminase activity relative to the wild-type pro-peptide” value in data set [4] was “decrease in transglutaminase activity relative to the wild-type pro-peptide”. Also, in data set [5], the “activity at pH 6.0 relative to pH 8.0 compared to the wild-type pro-peptide” value was “increase in activity at pH 6.0 relative to pH 8.0 compared to the wild-type pro-peptide”.

B2: SEQ ID NO: 3: thermostable variant of Streptomyces mobaraensis transglutaminase (protein)
chain: MDPDDRVTPPAEPLDRMPDPYRPSYGRAETVVNNYIRKWQQVYSHRDGRKQQMTEEQREWLSYGCVGVTWVNSGQYPTNRLAFASFDEDRFKNELKNGRPRSGETRAEFEGRVAKESFDEEKGFQRAREVASVMNRALENAHDESAYLDNLKKELANGNDALRNEDARSPFYSALRNTPSFKERNGGNHDPSRMKAVIYSKHFWSGQDRSSSADKRKYGDPDAFRPAPGTGLVDMSRDRNIPRSPTSPGEGFVNFDYGWFGAQTEADADKTVWTHGNHYHAPNGSLGAMHVYESKFRNWSEGYSDFDRGAYVITFIPKSWNTAPDKVKQGWP
For B2, the MIC entry in data set [6] was “outside the range of detection”.
